Results from patent publication US8337851B2, “Methods of monitoring the efficacy of anti-CD40 antibodies in treating a subject for a CD40-expressing cancer” (Novartis AG, priority 2005, dated 2012).
“Also recorded” adds a separate entry of the source. One block for each molecule: values may come before it.

Key:
[1] = test system: B-CLL cells from patients; experiment: PI3K and MEK inhibitors on CD40L signaling and survival in B-CLL cells; assay type: cell-based, human
Experimental: A PI3K inhibitor (LY294002; Sigma, St. Louis, Mo.) and MEK inhibitor (PD98595; Cell Signaling Technology, Beverly, Mass.) were used to dissect the pathways required for CLL cell survival. In these experiments, 1.0×10^6 B-CLL cells from patients were serum starved in 1% FBS containing media for 4 hours. Serum-starved cells were then pretreated with LY294002 (PI3K inhibitor, 30 μM) or PD98595 (MEK inhibitor, 10 μM). Cell lysates were then collected before and 20 minutes after CD40L stimulation. Western blot analysis with antibodies to p-IKK α/β, p-ERK, p-Akt was conducted, and equal loading was evaluated by probing antibodies to total ERK and β-actin.

B-CLL cells [2] = experiment: p38 MAPK signaling in B-CLL cells, four-hour experiment; assay type: cell-based, human; conditions: 4 hours; SB203580 30 and 60 μM, CHIR-12.12 10 μg/mL
Experimental: In the four-hour experiment, approximately 0.8×10^6 B-CLL cells per well were serum starved in 1% FBS-containing media for 4 hours. […] Cell lysates were collected before and 20 minutes after CD40L stimulation. Western blot analysis with antibodies against specific proteins shown were conducted, and equal loading was evaluated by probing with antibodies to total p38 (t-p38) and β-actin.

B-CLL cells [3] = experiment: p38 MAPK signaling and survival in B-CLL cells, 24-hour experiment; assay type: cell-based, human
Experimental: In the 24-hour experiment, approximately 0.8×10^6 B-CLL cells per well were placed in full serum (10% FBS)-containing media for 24 hours. […] Western blot analysis with antibodies against specific proteins shown was conducted, and equal loading was evaluated by probing with antibodies against β-actin.

[4] = test system: human lymphocytes from normal subjects; experiment: Proliferation of human lymphocytes; assay type: cell-based; conditions: antibody alone
[5] = test system: primary cancer cells from NHL patients; experiment: ADCC against primary cancer cells; assay type: cell-based, human; conditions: in vitro
Excerpt: (§1) 4, 2003, Nov. 26, 2003, and Apr. 27, 2004, and assigned U.S. Patent Application Nos. 60/517,337, 60/525,579, and 60/565,710, respectively, and International Patent Application No. PCT/US2004/037152, also entitled “Antagonist, Anti-CD40 Monoclonal Antibodies and Methods for Their Use,” filed Nov. 4, 2004; the contents of each of which are herein incorporated by reference in their entirety.

[6] = test system: B cells from normal human subjects; experiment: In vitro CD40 ligand-mediated proliferation of normal B cells; assay type: cell-based
Excerpt: (§2) 2, 2000, and PCT International Application No. PCT/US01/30857, also titled “Human Anti-CD40 Antibodies,” filed Oct. 2, 2001, both of which are herein incorporated by reference in their entirety.
as §1

cell-surface CD40 = cell-surface CD40 (Homo sapiens, UniProt P25942); experiment: Flow cytometric CD40-ligand binding blockade and displacement; conditions: flow cytometric assays / FACS
Chain of cell-surface CD40 (P25942 21-277): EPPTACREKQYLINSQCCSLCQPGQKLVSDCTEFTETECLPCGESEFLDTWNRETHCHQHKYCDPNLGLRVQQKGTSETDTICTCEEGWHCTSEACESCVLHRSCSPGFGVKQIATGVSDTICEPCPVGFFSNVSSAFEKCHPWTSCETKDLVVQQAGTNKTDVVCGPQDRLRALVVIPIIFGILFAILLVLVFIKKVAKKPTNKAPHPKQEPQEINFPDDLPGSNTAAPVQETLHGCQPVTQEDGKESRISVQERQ
Excerpt: as §2, §1

[7] = test system: CD40-expressing target cells; experiment: ADCC activity of anti-CD40 antibodies (Table 1); assay type: cell-based
soluble CD40 = soluble CD40 (Homo sapiens, UniProt P25942); experiment: ELISA-type binding to soluble CD40; conditions: ELISA-type assays
Chain of soluble CD40 (P25942 21-193 limits assumed): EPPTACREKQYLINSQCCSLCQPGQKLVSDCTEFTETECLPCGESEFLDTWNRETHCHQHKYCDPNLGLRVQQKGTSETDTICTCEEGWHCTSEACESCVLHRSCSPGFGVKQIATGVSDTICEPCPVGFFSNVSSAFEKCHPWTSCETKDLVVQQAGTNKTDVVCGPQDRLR
Excerpt: as §2

[8] = test system: cancer cells from NHL and CLL patients; experiment: In vitro CD40 ligand-mediated proliferation of patient cancer cells; assay type: cell-based, human
Excerpt: as §1

KMS-12-BM tumor = experiment: Human KMS-12-BM subcutaneous xenograft model; assay type: in vivo, SCID mice; conditions: 1 mg/kg i.v. twice a week for two weeks (maximal tolerated dose); P>0.05
Experimental: Female SCID mice were treated with 3Gy irradiation one day prior to implantation of tumor cells. On the day of implantation, cells were prepared at a concentration of 5×10^7 cells/ml in 50% matrigel. Cells were implanted subcutaneously over the right flank at 5×10^6 cells/100 μl/mouse. […] Antibodies were administered intraperitoneally once a week for 4 weeks. Bortezomib was administered intravenously twice a week for two weeks.

[9] = test system: IM-9 tumor cells (a human multiple myeloma cell line); experiment: IM-9 multiple myeloma subcutaneous xenograft model; assay type: in vivo, SCID mice
Experimental: SCID mice were inoculated subcutaneously with IM-9 tumor cells (a human multiple myeloma cell line expressing both CD40 and CD20) in 50% […]™ at 5×10^6 cells per mouse. […] Alternatively, bortezomib dosing at 1 mg/kg intravenously occurred on days 5, 8, 12, and 15 after tumor implantation. […] Antibody dosing occurred on days 8, 14, and 21 post tumor implantation, while bortezomib dosing occurred on days 8, 11, 14 and 18 post tumor implantation. […] Data were analyzed using the log-rank test.

CLL cells = experiment: CD40L-induced cytokine secretion by CLL cells (Meso Scale Discovery); assay type: cell-based, human; conditions: CLL #1; 24 hours
Experimental: (§3) Cells (1×10^5 cells per well) were cultured in a 96-well plate in the presence or absence of CD40L (CD40 transfected, formaldehyde fixed CHO cells, 2×10^5 per well). […] Production of hIL-6, hIL-8, hIL-10, hTNF-α, hGM-CSF, hIL-1b, hIL-12p70, MCP-1, and MIP-1β was measured by Meso Scale Discovery® multi-array system (Meso Scale Discovery, Gaithersburg, Md.).

normal B cells = experiment: CD40L-induced cytokine secretion from normal B cells (Meso Scale Discovery); assay type: cell-based, human; conditions: 24 hours
Experimental: as §3

B-CLL cells [10] = experiment: CellTiter-Glo viability of CLL patient PBMCs; assay type: cell-based, human; conditions: 72 hours, 2 μg/ml rhsCD40L + 4 μg/ml enhancer
Experimental: Cell viability was determined after 72 hours using the CellTiter-Glo® Luminescent Cell Viability Kit (Promega, Madison, Wis.), which measures cellular ATP, and expressed as Relative Luminescence Units (RLU). Percent blockade was calculated as follows: […]

B-CLL cells [11] = experiment: cPARP flow cytometry of CLL patient PBMCs; assay type: cell-based, human; conditions: 24 hours
Experimental: [formula] cPARP analysis by flow cytometry was performed after 24 hours in culture. Cells were treated with FACSLysis buffer (BD Biosciences) and frozen. After fixation in 1% formaldehyde for 45 min, cells were washed and incubated with PE-conjugated mouse anti-human CD19 for 30 min at room temperature (RT). Cells were then permeabilized using 70% ethanol on ice for 30 min and stained for 30 min at RT with rabbit anti-human cPARP antibody or isotype control rabbit IgG along with PerCP-Cy5.5-labeled mouse anti-human CD5. This was followed by incubation with goat anti-rabbit IgG-AlexaFluor 647 for 30 min at RT before fixing with 1% formaldehyde and analyzing by flow cytometry. Percent blockade was calculated as follows: […]

Molecule: COc1cccc(-c2cc(=O)c3ccccc3o2)c1N [PD98595]
- IKK/NFkB activation ([1]; LY294002 30 μM or PD98595 10 μM): no change of IKK/NFkB activation
- survival mediated by CD40L (cleaved PARP, caspase-3, Bcl-xl) ([1]; LY294002 or PD98595, FIG. 9): no change of survival mediated by CD40L
- activation of ERK induced by CD40L ([1]; PD98595 10 μM, 20 minutes after CD40L): inhibited activation of ERK

Molecule: C[S+]([O-])c1ccc(-c2nc(-c3ccncc3)c(-c3ccc(F)cc3)[nH]2)cc1 (stereo not shown) [SB203580, reference compound]
- p38 activation by CD40L (B-CLL cells [2]): slightly inhibited
- cleaved Caspase-3 (B-CLL cells [3]; CD40L): induced to a lesser extent
- p38 phosphorylation (B-CLL cells [3]; CD40L): similarly blocked
- cleaved-PARP (B-CLL cells [3]; SB203580 30 and 60 μM, CHIR-12.12 10 μg/mL, CD40L): significantly induced
- Bcl-xl expression (B-CLL cells [3]; especially 60 μM SB203580 and 10 μg/ml CHIR-12.12): blocked

- binding to soluble CD40 (soluble CD40): bind soluble CD40
Molecule: CHIR-5.9: fully human anti-CD40 monoclonal antibody of the IgG1 isotype from hybridoma cell line 131.2F8.5.9 (ATCC PTA-5542)
- induction of lymphocyte proliferation (agonist activity) [4]: do not induce strong proliferation of human lymphocytes from normal subjects
- killing of primary cancer cells by ADCC [5]: kill primary cancer cells from NHL patients by ADCC
- effect on proliferation of normal B cells [6]: act as antagonist anti-CD40 antibodies; also recorded: inhibit in vitro CD40 ligand-mediated proliferation of normal B cells
- displacement of pre-bound CD40-ligand (cell-surface CD40): displace the pre-bound CD40-ligand; also recorded: can compete off CD40-ligand pre-bound to cell surface CD40
- prevention of CD40-ligand binding to cell-surface CD40 (cell-surface CD40): prevent the binding of CD40-ligand to cell-surface CD40; also recorded: can prevent CD40-ligand binding
- killing of CD40-expressing target cells by ADCC [7]: able to kill CD40-expressing target cells
- effect on CD40 ligand-mediated proliferation of cancer cells [8]: inhibiting in vitro CD40 ligand-mediated proliferation of cancer cells from NHL and CLL patients

Molecule: CC(C)C[C@H](NC(=O)[C@H](Cc1ccccc1)NC(=O)c1cnccn1)B(O)O [bortezomib, reference compound]
- tumor volume reduction (KMS-12-BM tumor): 22%
- tumor growth ([9]; first study, CHIR-12.12 1 and 10 mg/kg i.p. days 5, 12, 18, bortezomib 1 mg/kg i.v. days 5, 8, 12, 15): inhibited tumor growth at 15, 18, and 21 days post tumor implantation
- tumor growth ([9]; second study, bortezomib 1 mg/kg i.v. days 8, 11, 14, 18): did not display statistically significant growth inhibition

B1: CD40L: CD40 ligand used as stimulus: transfected formaldehyde fixed CHO cells (Example 4) or recombinant human soluble CD40L (Example 7) (protein)
chain: MIETYNQTSPRSAATGLPISMKIFMYLLTVFLITQMIGSALFAVYLHRRLDKIEDERNLHEDFVFMKTIQRCNTGERSLSLLNCEEIKSQFEGFVKDIMLNKEETKKENSFEMQKGDQNPQIAAHVISEASSKTTSVLQWAEKGYYTMSNNLVTLENGKQLTVKRQGLYYIYAQVTFCSNREASSQAPFIASLCLKSPGRFERILLRAANTHSSAKPCGQQSIHLGGVFELQPGASVFVNVTDPSQVSHGTGFTSFGLLKL
- MCP-1 secretion (CLL cells): 5.5 folds of induction over background
- MIP-1β secretion (CLL cells): no induction
- hGM-CSF secretion (CLL cells): 7.6 folds of induction over background
- hIL-1b secretion (CLL cells): no induction
- hIL-6 secretion (CLL cells): no induction
- hIL-8 secretion (CLL cells): 4.0 folds of induction over background
- hIL-10 secretion (CLL cells): 9.2 folds of induction over background
- hTNF-α secretion (CLL cells): 3.3 folds of induction over background
- MCP-1 secretion (normal B cells; Donor 1): 5.5 folds of induction over background
- MIP-1β secretion (normal B cells; Donor 1): 2.2 folds of induction over background
- hGM-CSF secretion (normal B cells; Donor 1): no induction
- hIL-1b secretion (normal B cells; Donor 1): no induction
- hIL-6 secretion (normal B cells; Donor 1): 5.7 folds of induction over background
- hIL-8 secretion (normal B cells; Donor 1): 7.7 folds of induction over background
- hIL-10 secretion (normal B cells; Donor 1): 3.6 folds of induction over background
- hIL-12p70 secretion (normal B cells; Donor 1): no induction
- hTNF-α secretion (normal B cells; Donor 1): 3.7 folds of induction over background
- MIP-1β secretion (normal B cells; Donor 2): 2.6 folds of induction over background
- hIL-1b secretion (normal B cells; Donor 2): no induction
- hIL-6 secretion (normal B cells; Donor 2): 3.8 folds of induction over background
- hIL-8 secretion (normal B cells; Donor 2): 14.7 folds of induction over background
- hTNF-α secretion (normal B cells; Donor 2): 4.8 folds of induction over background
- MCP-1 secretion (normal B cells; Donor 3): 1.7 folds of induction over background
- MIP-1β secretion (normal B cells; Donor 3): 17.8 folds of induction over background
- hGM-CSF secretion (normal B cells; Donor 3): no induction
- hIL-1b secretion (normal B cells; Donor 3): no induction
- hIL-6 secretion (normal B cells; Donor 3): 20.5 folds of induction over background
- hIL-8 secretion (normal B cells; Donor 3): 49.3 folds of induction over background
- hIL-10 secretion (normal B cells; Donor 3): 3.6 folds of induction over background
- hIL-12p70 secretion (normal B cells; Donor 3): no induction
- hTNF-α secretion (normal B cells; Donor 3): 22.8 folds of induction over background
- samples in which CD40L promoted survival of B-CLL cells (B-CLL cells [10]): 7/7
- samples in which CD40L promoted survival of B-CLL cells (B-CLL cells [11]): 6/7
